Consider one protein from paper PMC4486471 (Nature communications, 2014).

This data set deals with the molecule itself. Kind of data set: crystal structure.

B1: auto-phosphorylated minimal dual catalytic domain fragment of murine IRE1α encompassing residues 549 to 977 (domain or fragment, mouse, UniProt Q9EQY0 549-977, looked up)
chain: SPSLEQDDEDEETRMVIVGKISFCPKDVLGHGAEGTIVYKGMFDNRDVAVKRILPECFSFADREVQLLRESDEHPNVIRYFCTEKDRQFQYIAIELCAATLQEYVEQKDFAHLGLEPITLLHQTTSGLAHLHSLNIVHRDLKPHNILLSMPNAHGRIKAMISDFGLCKKLAVGRHSFSRRSGVPGTEGWIAPEMLSEDCKDNPTYTVDIFSAGCVFYYVISEGYHPFGKSLQRQANILLGACNLDCFHSDKHEDVIARELIEKMIAMDPQQRPSAKHVLKHPFFWSLEKQLQFFQDVSDRIEKEALDGPIVRQLERGGRAVVKMDWRENITVPLQTDLRKFRTYKGGSVRDLLRAMRNKKHHYRELPVEVQETLGSIPDDFVRYFTSRFPHLLSHTYQAMELCRHERLFQTYYWHEPTEPQPPVIPYAL
modifications: auto-phosphorylated (sites not given)
As to B1, the binding result is “binds”.
